Biological target: T1, C-reactive protein (CRP) (human, UniProt P02741 19-224)
T1 sequence: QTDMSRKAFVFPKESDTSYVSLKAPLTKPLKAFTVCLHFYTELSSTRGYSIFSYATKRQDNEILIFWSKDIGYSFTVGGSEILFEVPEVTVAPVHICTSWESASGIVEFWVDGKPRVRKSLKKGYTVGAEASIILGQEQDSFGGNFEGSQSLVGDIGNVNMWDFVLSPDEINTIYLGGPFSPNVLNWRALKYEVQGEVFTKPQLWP
Experiment: competition

## CGAAGGGGATTCGAGGGGTGATTGCGTGCTCCATTTGGTG (ssDNA, 5'-biotin-(CH2)6) [CRP-aptamer (40-mer)]
  binding result: binds

Source: article PMC9073860
